{"source": "paper PMC1450327", "about": "“Crystal Structure of the HSV-1 Fc Receptor Bound to Fc Reveals a Mechanism for Antibody Bipolar Bridging” (PLoS Biology, 2006)", "binders": {"B1": {"name": "C-terminal domain of the gE ectodomain (CgE), HSV-1 gE residues 213-390 (domain or fragment)", "chain": "APEVSHVRGVTVRMETPEAILFSPGETFSTNVSIHAIAHDDQTYSMDVVWLRFDVPTSCAEMRIYESCLYHPQLPECLSPADAPCAASTWTSRLAVRSYAGCSRTNPPPRCSAEAHMEPVPGLAWQAASVNLEFRDASPQHSGLYLCVVYVNDHIHAWGHITISTAAQYRNAVVEQPL", "modifications": "secreted from High 5 insect cells; disulfides Cys271-Cys297, Cys280-Cys289 and Cys314-Cys323 (gE numbering = entity position + 211); C-terminal Factor Xa site and 6xHis left out"}}, "biological_target": "T1, wild-type Fc (wtFc), recombinant Fc fragment of human IgG1 (human)", "T1 construct": "human IgG1 heavy chain constant region, Fc fragment, residues 223-447; also called IgG Fc", "assay": "SPR; BIAcore 2000; wtFc amine-coupled to a CM5 chip (440 RU); CgE injected, three-fold dilutions from 30 μM to 5 nM; pH 8 (50 mM HEPES pH 8.0, 150 mM NaCl, 3 mM EDTA, 0.005% P-20); equilibrium response fitted to a single-site model", "conditions": "both partners purified"}
{"binder": "B1", "values": [{"measurement": "Kd", "result": "~7", "unit": "µM"}]}
